Experiment [1] addresses HLA-A*26:02. The experiment is described as follows: IEDB peptide-MHC binding, purified MHC/direct/fluorescence; filed as Kd, often an IC50 or EC50 that approximates it; ≥ and ≤ were set here for values at or beyond the usual limits of such assays.
For experiment [2], the target named is HLA-A*02:01. Briefly: IEDB peptide-MHC binding, purified MHC/competitive/radioactivity; ≥ and ≤ were set here for values at or beyond the usual limits of such assays.
For experiment [3], the target named is HLA-A*01:01. Briefly: IEDB peptide-MHC binding, purified MHC/competitive/fluorescence; filed as Kd, often an IC50 or EC50 that approximates it; ≥ and ≤ were set here for values at or beyond the usual limits of such assays. The conditions noted are these: source organism: Human immunodeficiency virus 1.
Experiment [4] addresses HLA-A*11:01. The description is as above.
The target in a further experiment is HLA-A*02:06. Described as above. The conditions noted are these: source organism: Human immunodeficiency virus 1.
Experiment [5] concerns the target HLA-B*18:01. Described as above. The settings on record: source organism: Human immunodeficiency virus 1.
The target in another experiment is HLA-A*02:03. Described as above. The settings on record: source organism: Human immunodeficiency virus 1.
For the next experiment, the target named is HLA-A*30:01. The description is as above. The conditions noted are these: source organism: Human immunodeficiency virus 1.
Experiment [6] addresses HLA-A*26:02. Described as above. The conditions noted are these: source organism: Human immunodeficiency virus 1.
In experiment [7] the target is HLA-B*15:01. The experiment is described as above. The conditions noted are these: source organism: Human immunodeficiency virus 1.
The target of experiment [8] is HLA-B*57:01. The description is as above. The conditions noted are these: source organism: Human immunodeficiency virus 1.
Experiment [9] concerns the target HLA-B*15:17. The description is as above. The conditions noted are these: source organism: Human immunodeficiency virus 1.
The target of the next experiment is HLA-A*32:07. The experiment is described as above.
The target of another experiment is HLA-B*15:42. The description is as above.
A further experiment addresses HLA-B*45:06. Described as above.
The target in another experiment is HLA-B*83:01. The description is as above.
The target in experiment [10] is HLA-A*11:01. The experiment is described as follows: IEDB peptide-MHC binding, purified MHC/direct/fluorescence; filed as Kd, often an IC50 or EC50 that approximates it; ≥ and ≤ were set here for values at or beyond the usual limits of such assays.
Another experiment concerns the target HLA-B*07:02. Described as above.
In another experiment the target is HLA-A*03:01. The experiment is described as above.
In the next experiment the target is HLA-C*03:03. Described as above. The settings on record: source organism: Homo sapiens.
Experiment [11] deals with HLA-A*02:01. Described as above.
The target in another experiment is HLA-B*27:05. Described as above.
In experiment [12] the target is HLA-B*15:01. The experiment is described as above.
The target in the next experiment is HLA-A*69:01. The description is as above.
For the next experiment, the target named is HLA-B*58:01. The description is as above.
The next experiment has as its target HLA-A*31:01. The experiment is described as above.
The next experiment addresses HLA-C*06:02. The description is as above.
The target of experiment [13] is HLA-A*01:01. Described as above. The settings on record: source organism: Influenza A virus (A/Wisconsin/4755/1994(H1N1)).
Experiment [14] addresses HLA-B*18:01. The experiment is described as above. The conditions noted are these: source organism: Influenza A virus (A/Wisconsin/4755/1994(H1N1)).
A further experiment has as its target HLA-A*68:02. Described as above. The settings on record: source organism: Influenza A virus (A/Wisconsin/4755/1994(H1N1)).
The next experiment addresses HLA-B*46:01. The experiment is described as above. The conditions noted are these: source organism: Influenza A virus (A/Wisconsin/4755/1994(H1N1)).
A further experiment has as its target HLA-B*40:01. Described as above. The settings on record: source organism: Influenza A virus (A/Wisconsin/4755/1994(H1N1)).
In the next experiment the target is HLA-B*08:01. The description is as above. The conditions noted are these: source organism: Influenza A virus (A/seal/Mass/1/1980(H7N7)).
The target of a further experiment is HLA-A*26:01. The description is as above. The settings on record: source organism: Influenza A virus H3N2.
For experiment [15], the target named is HLA-B*57:01. The experiment is described as above. The conditions noted are these: source organism: Influenza A virus (A/Wisconsin/4755/1994(H1N1)).
In experiment [16] the target is HLA-B*15:17. The experiment is described as above. The conditions noted are these: source organism: Influenza A virus (A/Wisconsin/4755/1994(H1N1)).
Another experiment deals with HLA-B*48:01. The experiment is described as above. The settings on record: source organism: Influenza A virus (A/Wisconsin/4755/1994(H1N1)).
For a further experiment, the target named is HLA-A*24:03. The experiment is described as follows: IEDB peptide-MHC binding, purified MHC/competitive/fluorescence; filed as Kd, often an IC50 or EC50 that approximates it; ≥ and ≤ were set here for values at or beyond the usual limits of such assays. The conditions noted are these: source organism: Bacillus cereus G9241.
In another experiment the target is HLA-C*14:02. The description is as above. The conditions noted are these: source organism: Bacillus cereus G9241.
In a further experiment the target is HLA-C*15:02. Briefly: IEDB peptide-MHC binding, purified MHC/direct/fluorescence; filed as Kd, often an IC50 or EC50 that approximates it; ≥ and ≤ were set here for values at or beyond the usual limits of such assays. The settings on record: source organism: Bacillus cereus G9241.
The mark [17] stands for this setting: source organism: Influenza A virus (A/Wisconsin/4755/1994(H1N1)).
Setting [18] is: source organism: Bacillus cereus G9241.

One may read the Kd as the equilibrium constant for the complex coming apart. Low readings indicate a tighter complex, high ones a looser complex. As usually defined, the IC50 is the point on the concentration scale where inhibition reaches its midpoint.

In the case of EYTDYMPSM, in the experiment with HLA-A*26:02 [1] (source organism: Dengue virus 2 Thailand/16681/84), the Kd is 0.026 µM.

Regarding IMDKNIILKA, in the experiment with HLA-A*02:01 [2] (source organism: Influenza A virus (A/Puerto Rico/8/1934(H1N1))), the IC50 was 43 µM.

On to ALSRKVAEL, for which the IC50 in the experiment with HLA-A*02:01 [2] (source organism: Homo sapiens) was determined as 0.1 µM.

On to KSLYNTIATLY, for which the dissociation constant Kd was 2.91 µM in the experiment with HLA-A*01:01 [3]; 0.697 µM with HLA-A*11:01 [4] (source organism: Human immunodeficiency virus 1); 2.02 µM with HLA-A*02:06; 0.346 µM with HLA-B*18:01 [5]; no less than 20 µM with HLA-A*02:03; no less than 20 µM with HLA-A*30:01. The Kd is 1.06 µM with HLA-A*26:02 [6], no less than 20 µM with HLA-B*15:01 [7], 0.652 µM with HLA-B*57:01 [8] and 0.0126 µM with HLA-B*15:17 [9].

With CISSCNPNP, in the experiment with HLA-A*02:01 [2] (source organism: Homo sapiens), the IC50 is no less than 20 µM.

As to RVMAPRALL, the dissociation constant Kd is 0.0219 µM with HLA-A*32:07 (source organism: Homo sapiens); no less than 20 µM with HLA-B*15:42 (source organism: Homo sapiens); no less than 5 µM with HLA-B*45:06 (source organism: Homo sapiens); 9.34 µM in the experiment with HLA-B*83:01 (source organism: Homo sapiens); 1 µM with HLA-A*11:01 [10] (source organism: Homo sapiens); 0.232 µM in the experiment with HLA-B*07:02 (source organism: Homo sapiens). For the same sequence, the Kd worked out at 0.775 µM with HLA-A*03:01 (source organism: Homo sapiens); 0.113 µM with HLA-C*03:03; 15.6 µM with HLA-A*02:01 [11] (source organism: Homo sapiens); 2.17 µM with HLA-B*27:05 (source organism: Homo sapiens); 0.103 µM with HLA-B*15:01 [12] (source organism: Homo sapiens); 0.13 µM with HLA-A*69:01 (source organism: Homo sapiens). In addition, the Kd in the experiment with HLA-B*58:01 (source organism: Homo sapiens) was found to be 0.304 µM; with HLA-A*31:01 (source organism: Homo sapiens), 0.143 µM; in the experiment with HLA-C*06:02 (source organism: Homo sapiens), 0.049 µM.

RTYSGPMNKV: in the experiment with HLA-A*02:01 [2] (source organism: Homo sapiens), the IC50 worked out at 0.793 µM.

Consider DPKKTGGPI, for which the Kd was no less than 20 µM in the experiment with HLA-A*01:01 [13]; no less than 20 µM with HLA-A*11:01 [10] (setting [17]); 0.0849 µM in the experiment with HLA-B*07:02 (source organism: Influenza A virus (A/seal/Mass/1/1980(H7N7))); no less than 20 µM in the experiment with HLA-B*18:01 [14]; no less than 20 µM in the experiment with HLA-A*68:02; no less than 20 µM with HLA-B*46:01. The Kd with HLA-A*03:01 (setting [17]), in the experiment with HLA-B*40:01, with HLA-A*26:02 [1] (source organism: Influenza A virus H3N2), with HLA-A*02:01 [11] (setting [17]), with HLA-B*27:05 (setting [17]) and in the experiment with HLA-B*08:01 was no less than 20 µM in each case. Besides, the Kd with HLA-B*15:01 [12] (setting [17]), with HLA-A*69:01 (setting [17]), with HLA-A*26:01, with HLA-B*57:01 [15], in the experiment with HLA-B*58:01 (setting [17]) and with HLA-A*31:01 (setting [17]) was no less than 20 µM in each case. Besides, the Kd with HLA-B*15:17 [16] and with HLA-B*48:01 was no less than 20 µM in each case.

RTMEVFTMY: the Kd with HLA-A*11:01 [4] (source organism: Yersinia pestis Nepal516) is 0.0033 µM.

On to YYKKTFSAL, for which the Kd with HLA-A*32:07 (setting [18]) was 0.029 µM; with HLA-B*15:42 (setting [18]), no less than 5 µM; with HLA-A*24:03, no more than 0.0001 µM; with HLA-B*45:06 (setting [18]), no less than 5 µM; with HLA-B*83:01 (setting [18]), no less than 5 µM; in the experiment with HLA-C*14:02, 0.0004 µM. For the same sequence, the values for the Kd in the experiment with HLA-C*15:02 and with HLA-C*06:02 (setting [18]) were no less than 20 µM and 1.66 µM, respectively.

The values above are taken from the Immune Epitope Database (IEDB).
